Here are results for 1 molecule from paper PMC11001197, “The PII protein interacts with the Amt ammonium transport and modulates nitrate/nitrite assimilation in mycobacteria” (Frontiers in Microbiology, 2024).

The target in this assay is T1, M. tuberculosis AccA3, His tag fusion (α-subunit of the acyl-CoA carboxylases) (M. tuberculosis, UniProt P96890 1-600).
T1 construct: also called His-AccA3; AccA3-His6
Briefly: pull-down. As to conditions: both partners purified.

T1 sequence (P96890 whole entry, the tested form may be a part): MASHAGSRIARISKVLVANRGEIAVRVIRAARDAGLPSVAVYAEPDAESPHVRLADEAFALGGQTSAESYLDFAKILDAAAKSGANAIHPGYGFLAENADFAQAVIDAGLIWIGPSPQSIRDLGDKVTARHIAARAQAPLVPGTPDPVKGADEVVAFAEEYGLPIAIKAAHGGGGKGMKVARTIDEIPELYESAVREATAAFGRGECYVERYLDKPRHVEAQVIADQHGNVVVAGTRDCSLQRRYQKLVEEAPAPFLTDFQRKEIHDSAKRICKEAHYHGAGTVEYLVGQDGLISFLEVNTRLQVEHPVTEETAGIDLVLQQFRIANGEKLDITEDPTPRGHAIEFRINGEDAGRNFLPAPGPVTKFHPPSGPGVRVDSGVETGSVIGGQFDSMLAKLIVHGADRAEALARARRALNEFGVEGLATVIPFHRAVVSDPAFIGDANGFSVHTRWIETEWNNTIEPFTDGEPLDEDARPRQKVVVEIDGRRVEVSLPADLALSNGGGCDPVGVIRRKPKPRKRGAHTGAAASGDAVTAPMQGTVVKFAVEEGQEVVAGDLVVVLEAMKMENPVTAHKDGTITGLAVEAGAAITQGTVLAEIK

B1: Azospirillum brasilense GlnB (PII protein), without tags (natural protein, A. brasilense, UniProt P21193 1-112, looked up)
chain: MKKIEAIIKPFKLDEVKEALHEVGIKGITVTEAKGFGRQKGHTELYRGAEYVVDFLPKVKIEVVMEDSLVERAIEAIQQAAHTGRIGDGKIFVTPVEEVVRIRTGEKGGDAI
notes: also called Ab-GlnB; PII (Ab); source: E. coli (plasmid pLH25PET, pET28a), obtained without tags according to Gerhardt et al. (2015, 2017)
For B1, the binding result was “binds”.
